Measurements reported in patent US20110217237A1 (AbbVie / Abbott, published 2011).

Tests used:
mouse DLL4 on cells [1] = biological target: T1, mouse DLL4 on cells (mouse, UniProt Q9JI71 27-686); assay: cell-based or functional assay
[2] = biological target: T2, human DLL4, full length, on cells (human, UniProt Q9NR61 27-685); assay: cell-based or functional assay
mouse DLL4 on cells [3] = biological target: T1, mouse DLL4 on cells; assay: FACS, direct binding to DLL4 cells
Method: (§1) Stable cell lines overexpressing cell-surface DLL4 were harvested from tissue culture flasks, washed four times and resuspended in phosphate buffered saline (PBS) containing 1% bovine serum albumin and 1 mM CaCl₂ (FACS buffer). 1.5×10⁵ cells were incubated with antibodies at various concentrations in FACS buffer for 60 minutes on ice. […] Following an incubation on ice (4° C., 60 minutes), cells were washed three times and resuspended in FACS buffer. Fluorescence was measured using a Becton Dickinson FACSCalibur-HTS (Becton Dickinson, San Jose, Calif., US). Data were analyzed using Graphpad Prism software and EC₅₀ values were reported as the concentration of antibody to achieve 50% of maximal DLL4 antibodies binding to DLL4 expressing cells.
(§2) The hu1A11.1 affinity matured clones (Table 22) were expressed, purified, and further characterized in vitro. Their activities of binding to cell-bound DLL4 and inhibiting cell-bound DLL4-induced Notch activation were further examined using methods described in Examples 1.3 and 1.6, and are summarized in Table 26 (below).

[4] = biological target: T2, human DLL4, full length, on cells; assay: FACS, direct binding to DLL4 cells
Method: as §1, §2

[5] = biological target: T3, mouse DLL4 extracellular domain (mouse, UniProt Q9JI71 27-532); assay: SPR (Biacore)
T3 construct: extracellular domain; also called muDLL4 ECD; murine DLL4
Method: (§3) The BIACORE® surface plasmon resonance assay (Biacore, Inc., Piscataway, N.J., US) determines the affinity of antibodies with kinetic measurements of on-rate and off-rate constants. Binding of DLL4 antibodies to a purified recombinant DLL4 extracellular domain (ECD) was determined by surface plasmon resonance-based measurements with a Biacore® instrument (either a Biacore 2000, Biacore 3000, or Biacore T100; GE Healthcare, Piscataway, N.J., US) using running buffer HBS-EPB (10 mM HEPES [pH 7.4], 150 mM NaCl, 3 mM EDTA, 0.1 mg/ml BSA and 0.005% surfactant P20) at 25° C. For example, approximately 9000 RU of goat anti-human Fc specific polyclonal antibody (Thermo Fisher Scientific Inc., Rockford, Ill., US) diluted in 10 mM sodium acetate (pH 4.5) is directly immobilized across a CMS research grade biosensor chip using a standard amine coupling kit according to manufacturer's instructions and procedures at 25 μg/ml. Unreacted moieties on the biosensor surface were blocked with ethanolamine. For kinetic analysis, rate equations derived from the 1:1 Langmuir binding model were fitted simultaneously to multiple antigen injections (using global fit analysis) with the use of Scrubber 2 (BioLogic Software), Biacore Biaevaluation 4.0.1 software or Biacore T100 Evaluation software. Purified antibodies were diluted in running buffer for capture across goat anti-human Fc reaction surfaces. Antibodies to be captured as a ligand (1 μg/ml) were injected over reaction matrices at a flow rate of 10 μl/min. During the assay, all measurements were referenced against the capture surface alone (i.e., with no captured anti-DLL4 antibody). […] The equilibrium dissociation constant KD (M) of the reaction between antibodies and the target antigen was then calculated from the kinetic rate constants by the following formula: KD=Koff/Kₒₙ. Binding was recorded as a function of time and kinetic rate constants were calculated.

[6] = biological target: T4, rat DLL4 extracellular domain (rat, UniProt D3ZHH1 28-530); assay: SPR (Biacore)
T4 construct: extracellular domain; also called ratDLL4 ECD
Method: as §3

[7] = biological target: T5, cynomolgus monkey DLL4 extracellular domain (cynomolgus monkey); assay: SPR (Biacore)
T5 construct: extracellular domain; also called cynoDLL4 ECD; Cyno DLL4
Method: as §3

[8] = biological target: T6, human DLL4 extracellular domain (human, UniProt Q9NR61 27-529); assay: SPR (Biacore)
T6 construct: purified recombinant ECD; biotin-labelled or 6xHis-tagged depending on the assay; also called huDLL4 ECD; hu DLL4 ECD
Method: as §3

T6 sequence (Q9NR61 27-529 limits assumed): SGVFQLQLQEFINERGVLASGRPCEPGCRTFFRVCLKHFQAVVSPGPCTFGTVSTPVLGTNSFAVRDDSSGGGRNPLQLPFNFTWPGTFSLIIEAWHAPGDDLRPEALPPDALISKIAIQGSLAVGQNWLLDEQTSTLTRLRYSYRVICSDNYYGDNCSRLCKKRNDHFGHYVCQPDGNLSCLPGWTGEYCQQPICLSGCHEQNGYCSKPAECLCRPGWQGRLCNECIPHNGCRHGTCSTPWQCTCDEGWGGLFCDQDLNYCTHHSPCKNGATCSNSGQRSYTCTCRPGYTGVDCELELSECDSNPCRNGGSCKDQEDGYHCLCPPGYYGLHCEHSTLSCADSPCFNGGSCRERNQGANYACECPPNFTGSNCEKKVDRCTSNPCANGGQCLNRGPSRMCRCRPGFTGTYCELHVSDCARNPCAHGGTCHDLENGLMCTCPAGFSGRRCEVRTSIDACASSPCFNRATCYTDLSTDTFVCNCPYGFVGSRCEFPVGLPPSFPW
T3 sequence (Q9JI71 27-532): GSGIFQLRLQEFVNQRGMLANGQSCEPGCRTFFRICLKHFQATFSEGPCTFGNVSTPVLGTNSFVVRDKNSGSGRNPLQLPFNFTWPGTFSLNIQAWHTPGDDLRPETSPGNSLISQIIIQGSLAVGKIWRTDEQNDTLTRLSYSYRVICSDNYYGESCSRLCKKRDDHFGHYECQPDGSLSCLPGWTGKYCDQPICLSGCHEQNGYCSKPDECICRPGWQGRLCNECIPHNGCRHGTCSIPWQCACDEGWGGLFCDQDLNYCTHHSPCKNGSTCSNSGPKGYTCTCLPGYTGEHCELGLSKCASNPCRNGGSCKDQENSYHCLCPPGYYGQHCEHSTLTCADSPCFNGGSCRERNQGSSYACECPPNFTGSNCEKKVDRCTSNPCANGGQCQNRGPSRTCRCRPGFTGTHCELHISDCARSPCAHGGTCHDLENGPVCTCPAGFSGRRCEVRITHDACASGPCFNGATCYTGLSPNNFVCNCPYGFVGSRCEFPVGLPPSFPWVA
T4 sequence (D3ZHH1 28-530): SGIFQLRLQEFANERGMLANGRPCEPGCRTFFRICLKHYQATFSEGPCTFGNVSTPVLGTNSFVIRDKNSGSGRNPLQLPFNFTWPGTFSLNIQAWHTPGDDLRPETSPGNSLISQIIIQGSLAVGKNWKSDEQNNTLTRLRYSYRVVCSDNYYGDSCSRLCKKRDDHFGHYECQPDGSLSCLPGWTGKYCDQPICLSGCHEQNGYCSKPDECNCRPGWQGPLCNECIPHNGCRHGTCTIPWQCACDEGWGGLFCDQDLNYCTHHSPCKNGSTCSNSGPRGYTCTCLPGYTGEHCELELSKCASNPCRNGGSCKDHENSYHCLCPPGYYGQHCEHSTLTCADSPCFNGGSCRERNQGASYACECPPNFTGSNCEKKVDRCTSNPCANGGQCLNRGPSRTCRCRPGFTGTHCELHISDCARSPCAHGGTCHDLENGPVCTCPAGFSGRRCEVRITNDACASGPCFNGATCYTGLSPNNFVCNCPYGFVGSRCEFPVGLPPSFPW
T2 sequence (Q9NR61 27-685 limits assumed): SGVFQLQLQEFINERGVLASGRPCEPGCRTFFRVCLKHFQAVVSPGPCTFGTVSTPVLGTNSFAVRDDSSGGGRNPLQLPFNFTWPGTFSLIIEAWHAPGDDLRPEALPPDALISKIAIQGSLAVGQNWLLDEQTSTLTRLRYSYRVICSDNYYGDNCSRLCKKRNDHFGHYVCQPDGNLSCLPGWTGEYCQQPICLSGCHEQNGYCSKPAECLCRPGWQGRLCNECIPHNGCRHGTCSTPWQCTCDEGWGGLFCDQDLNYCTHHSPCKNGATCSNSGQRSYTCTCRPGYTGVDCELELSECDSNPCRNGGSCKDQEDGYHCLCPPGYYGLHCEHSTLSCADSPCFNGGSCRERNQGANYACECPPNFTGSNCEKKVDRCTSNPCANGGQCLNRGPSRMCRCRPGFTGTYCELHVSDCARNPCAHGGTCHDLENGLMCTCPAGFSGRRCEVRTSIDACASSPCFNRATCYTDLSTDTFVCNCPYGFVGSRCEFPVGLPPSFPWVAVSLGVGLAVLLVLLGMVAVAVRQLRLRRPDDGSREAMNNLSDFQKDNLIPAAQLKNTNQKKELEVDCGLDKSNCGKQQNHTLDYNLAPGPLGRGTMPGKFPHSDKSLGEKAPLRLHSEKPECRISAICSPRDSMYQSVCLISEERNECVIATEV
T1 sequence (Q9JI71 27-686): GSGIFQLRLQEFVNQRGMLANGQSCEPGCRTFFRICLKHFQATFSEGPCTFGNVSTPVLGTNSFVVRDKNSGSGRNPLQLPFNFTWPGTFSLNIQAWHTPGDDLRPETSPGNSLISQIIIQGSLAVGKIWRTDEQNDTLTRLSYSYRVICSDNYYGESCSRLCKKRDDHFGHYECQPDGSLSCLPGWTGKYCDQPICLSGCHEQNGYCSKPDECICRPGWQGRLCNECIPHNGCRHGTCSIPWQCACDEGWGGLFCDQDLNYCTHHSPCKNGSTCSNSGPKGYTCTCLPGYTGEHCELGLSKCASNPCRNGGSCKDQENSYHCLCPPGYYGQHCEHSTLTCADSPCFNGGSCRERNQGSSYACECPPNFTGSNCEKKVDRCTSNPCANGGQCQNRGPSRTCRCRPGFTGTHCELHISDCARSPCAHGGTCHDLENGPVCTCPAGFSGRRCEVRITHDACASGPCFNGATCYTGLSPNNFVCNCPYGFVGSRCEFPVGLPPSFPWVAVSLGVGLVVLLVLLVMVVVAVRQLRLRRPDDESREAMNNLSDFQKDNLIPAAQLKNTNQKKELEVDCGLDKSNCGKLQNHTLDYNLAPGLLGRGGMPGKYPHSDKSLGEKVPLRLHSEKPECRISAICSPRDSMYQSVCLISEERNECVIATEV

| Binder | Inhibition of Notch Activation via DLL4 cells, Notch reporter assay (mouse DLL4 on cells [1]) | Inhibition of Notch Activation via DLL4 cells, Notch reporter assay [2] | EC50 (mouse DLL4 on cells [3]) | EC50 [4] | Kd [5] | koff [5] | kon [5] | Kd [6] | koff [6] | kon [6] | Kd [7] | koff [7] | kon [7] | Kd [8] | koff [8] | kon [8] | binding result [6] |
| --- | --- | --- | --- | --- | --- | --- | --- | --- | --- | --- | --- | --- | --- | --- | --- | --- | --- |
| h1A11.A6 (antibody, V domains shown, also called h1A11.A6 VH / h1A11VL.1) VH: EVQLVESGGGLVQPGGSLRLSCAASGFTFRHFPMAWVRQAPGKGLEWVATISSSDAWPSYRDSVKGRFTISRDNAKNSLYLQMNSLRAEDTAVYYCSRGYYNSPFAYWGQGTLVTVSS VL: DIQMTQSPSSLSASVGDRVTITCRASEDIYSNLAWYQQKPGKAPKLLIYDTNNLADGVPSRFSGSGSGTDFTLTISSLQPEDFATYYCQQYNNYPPTFGQGTKLEIK | 1.17 nM | 0.746 nM | 0.636 nM | 2.23 nM | 0.16 nM | 3.12e-05 s⁻¹ | 198000 M⁻¹ s⁻¹ | 6 nM | 0.000772 s⁻¹ | 129000 M⁻¹ s⁻¹ | 0.12 nM | 2.1e-05 s⁻¹ | 171000 M⁻¹ s⁻¹ | 0.036 nM | 6.62e-06 s⁻¹ | 182000 M⁻¹ s⁻¹ | – |
| h1A11.A7 (antibody, V domains shown, also called h1A11VH.1 / h1A11.A7 VL) VH: EVQLVESGGGLVQPGGSLRLSCAASGFTFSNFPMAWVRQAPGKGLEWVATISSSDGTTYYRDSVKGRFTISRDNAKNSLYLQMNSLRAEDTAVYYCARGYYNSPFAYWGQGTLVTVSS VL: DIQMTQSPSSLSASVGDRVTITCRASQDIYINLAWYQQKPGKAPKLLIFDTSDLADGVPSRFSGSGSGTDFTLTISSLQPEDFATYYCQQYDYYPPTFGQGTKLEIK | 1.79 nM | 2.92 nM | 0.625 nM | 2.17 nM | – | – | – | – | – | – | 7.8 nM | 0.00124 s⁻¹ | 158000 M⁻¹ s⁻¹ | 5.7 nM | 0.000973 s⁻¹ | 170000 M⁻¹ s⁻¹ | no binding |
| h1A11.G3 (antibody, V domains shown, also called h1A11.G3 VH / h1A11.E12 VL) VH: EVQLVESGGGLVQPGGSLRLSCAASGFTFRYFPMSWVRQAPGKGLEWVASISGSDGWASYRDSVKGRFTISRDNAKNSLYLQMNSLRAEDTAVYYCARGYYNSPFAYWGQGTLVTVSS VL: DIQMTQSPSSLSASVGDRVTITCRASQEIYRNLAWYQQKPGKSPKLLIFDTSVLADGVPSRFSGSGSGTDSTLTISSLQPEDFATYYCQQYTYYPPTFGQGTKLEIK | 2.35 nM | 1.84 nM | 1.4 nM | 3.59 nM | 0.35 nM | 4.04e-05 s⁻¹ | 117000 M⁻¹ s⁻¹ | 8.6 nM | 0.00101 s⁻¹ | 118000 M⁻¹ s⁻¹ | 0.17 nM | 1.73e-05 s⁻¹ | 99000 M⁻¹ s⁻¹ | 0.087 nM | 9.39e-06 s⁻¹ | 109000 M⁻¹ s⁻¹ | – |
| h1A11.C6 (antibody, V domains shown, also called h1A11.C6 VH / h1A11VL.1) VH: EVQLVESGGGLVQPGGSLRLSCAASGFTFRNFPMAWVRQAPGKGLEWVATISSSDGWPTYRDSVKGRFTISRDNAKSSLYLQMNSLRAEDTAVYYCSRGYYNSPFAYWGQGTLVTVSS VL: DIQMTQSPSSLSASVGDRVTITCRASEDIYSNLAWYQQKPGKAPKLLIYDTNNLADGVPSRFSGSGSGTDFTLTISSLQPEDFATYYCQQYNNYPPTFGQGTKLEIK | 1.19 nM | 0.894 nM | 0.517 nM | 2.45 nM | 0.12 nM | 2.34e-05 s⁻¹ | 203000 M⁻¹ s⁻¹ | 18 nM | 0.00305 s⁻¹ | 169000 M⁻¹ s⁻¹ | 0.18 nM | 3.12e-05 s⁻¹ | 171000 M⁻¹ s⁻¹ | 0.04 nM | 7.18e-06 s⁻¹ | 178000 M⁻¹ s⁻¹ | – |
| h1A11.F5 (antibody, V domains shown, also called h1A11.F5 VH / h1A11.E12 VL) VH: EVQLVESGGGLVQPGGSLRLSCAASGFTFRHFPMAWVRQAPGKGLEWVATISSSDAWPSYRDSVKGRFTISRDNAKNSLYLQMNSLRAEDTAVYYCARGYYNSPFAYWGQGTLVTVSS VL: DIQMTQSPSSLSASVGDRVTITCRASQEIYRNLAWYQQKPGKSPKLLIFDTSVLADGVPSRFSGSGSGTDSTLTISSLQPEDFATYYCQQYTYYPPTFGQGTKLEIK | 0.649 nM | 0.484 nM | 0.46 nM | 1.17 nM | 0.28 nM | 3.97e-05 s⁻¹ | 143000 M⁻¹ s⁻¹ | 5.8 nM | 0.000679 s⁻¹ | 116000 M⁻¹ s⁻¹ | 0.17 nM | 2e-05 s⁻¹ | 118000 M⁻¹ s⁻¹ | 0.075 nM | 9.82e-06 s⁻¹ | 131000 M⁻¹ s⁻¹ | – |
| h1A11.A12 (antibody, V domains shown, also called h1A11VH.1 / h1A11.A12 VL) VH: EVQLVESGGGLVQPGGSLRLSCAASGFTFSNFPMAWVRQAPGKGLEWVATISSSDGTTYYRDSVKGRFTISRDNAKNSLYLQMNSLRAEDTAVYYCARGYYNSPFAYWGQGTLVTVSS VL: DIQMTQSPSSLSASVGDRVTITCRASQDIYYNLAWYQQKPGKSPKLLIFDTSSLADGVPSRFSGSGSGTDFTLTISSLQPEDFATYFCQQYDWYPPTFGQGTKLEIK | 0.832 nM | 1.66 nM | 0.568 nM | 1.77 nM | – | – | – | – | – | – | 10 nM | 0.00162 s⁻¹ | 158000 M⁻¹ s⁻¹ | 7.6 nM | 0.00132 s⁻¹ | 173000 M⁻¹ s⁻¹ | no binding |
| h1A11.B4 (antibody, V domains shown, also called h1A11VH.1 / h1A11.B4 VL) VH: EVQLVESGGGLVQPGGSLRLSCAASGFTFSNFPMAWVRQAPGKGLEWVATISSSDGTTYYRDSVKGRFTISRDNAKNSLYLQMNSLRAEDTAVYYCARGYYNSPFAYWGQGTLVTVSS VL: DIQMTQSPSSLSASVGDRVTITCRASQDIYYNLAWYQQKPGKAPKLLIFDTNILADGVPSRFSGSGSGTDFTLTISSLQPEDFATYFCQQYDYVPPTFGQGTKLEIK | 1.08 nM | 3.28 nM | 0.665 nM | 2.15 nM | 5.2 nM | 0.0025 s⁻¹ | 479000 M⁻¹ s⁻¹ | – | – | – | 6.9 nM | 0.00099 s⁻¹ | 143000 M⁻¹ s⁻¹ | 5.2 nM | 0.000823 s⁻¹ | 157000 M⁻¹ s⁻¹ | no binding |
| h1A11.A2 (antibody, V domains shown, also called h1A11VH.1 / h1A11.A2 VL) VH: EVQLVESGGGLVQPGGSLRLSCAASGFTFSNFPMAWVRQAPGKGLEWVATISSSDGTTYYRDSVKGRFTISRDNAKNSLYLQMNSLRAEDTAVYYCARGYYNSPFAYWGQGTLVTVSS VL: DIQMTQSPSSLSASVGDRVTITCRASQDIYINLAWYQQKPGKSPKLLIFDTNDLADGVPSRFSGSGSGTDFTLTISSLQPEDFATYYCQQYDYVPPTFGQGTKLEIK | 0.854 nM | 3.68 nM | 0.634 nM | 2.38 nM | 5 nM | 0.000904 s⁻¹ | 181000 M⁻¹ s⁻¹ | – | – | – | 3.9 nM | 0.000527 s⁻¹ | 134000 M⁻¹ s⁻¹ | 3 nM | 0.000421 s⁻¹ | 142000 M⁻¹ s⁻¹ | no binding |
